Assay results published in patent publication US20180142226.
Positions count from the first letter of the chain named.

T1: 26mer peptide of γ-gliadin
T1 chain: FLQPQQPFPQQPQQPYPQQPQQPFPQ

T2: 33mer peptide of α-gliadin
T2 chain: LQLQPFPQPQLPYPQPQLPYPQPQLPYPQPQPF

T3: W03-E07
T3 chain: QPFPQPQQPFPWQP

T4: W02-E07
T4 chain: LQPFPQPQLPYPQPQ

T5: B08-E2E7
T5 chain: PQQPIPQQPQPYPQQ

T6: R11-E4E7
T6 chain: QPFPQQPEQIIPQQP

B1: Kuma020 (protein)
chain: AAPTAYTPLDVAQAYQFPEGLDGQGQCIAIIELGGGYDEASLAQYFASLGVPAPQVVSVSVDGASNQPTGDPKGPDGEVELDIEVAGALAPGAKFAVYFAPDTTAGFLDAITTAIHDPTLKPSVVSISWSGPEDSWTSAAIAAMNRAFLDAAALGVTVLAAAGDSGSTSGEQDGLYHVHFPAASPYVLACGGTRLVASGGRIAQETVWNDGPDGGATGGGVSRIFPLPAWQEHANVPPSANPGASSGRGVPDLAGNADPATGYEVVIDGEATVTGGTSAVAPLFAALVARINQKLGKAVGYLNPTLYQLPADVFHDITEGNNDIANRAQIYQAGPGWDPCTGLGSPIGVRLLQALLPSASQPQPGSTENLYFQSGALEHHHHHH
B2: Kuma030 (protein)
chain: B1 chain with K73E, E80T, S165Q, D210Q, A260Q
B3: Kuma040 (protein)
chain: B1 chain with E80T, S130A, S169G, H179F, D210Q, A260Q
B4: Kuma050 (protein)
chain: B1 chain with K73E, E80T, L81V, S165Q, D210Q, A260Q, T274I
B5: Kuma010 (protein)
chain: AAPTAYTPLDVAQAYQFPEGLDGQGQCIAIIELGGGYDEASLAQYFASLGVPAPQVVSVSVDGASNQPTGDPKGPDGEVELDIEVAGALAPGAKFAVYFAPDTTAGFLDAITTAIHDPTLKPSVVSISWSGPEDSWTSAAIAAMNRAFLDAAALGVTVLAAAGDSGSTGGEQDGLYHVHFPAASPYVLACGGTRLVASGGRIAQETVWNDGPDGGATGGGVSRIFPLPAWQEHANVPPSANPGASSGRGVPDLAGNADPATGYEVVIDGEATVIGGTSAVAPLFAALVARINQKLGKAVGYLNPTLYQLPADVFHDITEGNNDIANRAQIYQAGPGWDPCTGLGSPIGVRLLQALLPSASQPQGSTENLYFQSGALEHHHHHH
B6: Kuma021 (protein)
chain: AAPTAYTPLDVAQAYQFPEGLDGQGQCIAIIELGGGYDEASLAQYFASLGVPAPQVVSVSVDGASNQPTGDPKGPDGEVELDIEVAGALAPGAKFAVYFAPDTTAGFLDAITTAIHDPTLKPSVVSISWSGPEDSWTSAAIAAMNRAFLDAAALGVTVLAAAGDSGSTSGEQDGLYHVHFPAASPYVLACGGTRLVASGGRIAQETVWNQGPDGGATGGGVSRIFPLPAWQEHANVPPSANPGASSGRGVPDLAGNADPQTGYEVVIDGEATVTGGTSAVAPLFAALVARINQKLGKAVGYLNPTLYQLPADVFHDITEGNNDIANRAQIYQAGPGWDPCTGLGSPIGVRLLQALLPSASQPQP
B7: Kuma032 (protein)
chain: B6 chain with K73E, E80T, S165Q
B8: Kuma042 (protein)
chain: B6 chain with E80T, S130A, S169G, H179F
B9: Kuma041 (protein)
chain: B6 chain with E80T, S130A, S169G, H179F
B10: Kuma031 (protein)
chain: B6 chain with K73E, E80T, S165Q

Key:
[1] = target: T1, 26mer peptide of γ-gliadin
[2] = target: T2, 33mer peptide of α-gliadin
W03-E07 = target: T3, W03-E07
W02-E07 = target: T4, W02-E07
B08-E2E7 = target: T5, B08-E2E7
R11-E4E7 = target: T6, R11-E4E7

Protein	appearance of peptide breakdown products over time [1]	appearance of peptide breakdown products over time [2]	Kcat (DQ2.5-glia-α1a)	Km (DQ2.5-glia-α1a)	Vmax (DQ2.5-glia-α1a)	kcat/Km (DQ2.5-glia-α1a)	Kcat (DQ2.5-glia-ω1)	Km (DQ2.5-glia-ω1)	Vmax (DQ2.5-glia-ω1)	kcat/Km (DQ2.5-glia-ω1)	further results
B1	Kuma020 demonstrated a moderate amount of activity on both peptides	Kuma020 demonstrated a moderate amount of activity on both peptides	–	–	–	–	–	–	–	–	Activity Improvement over Background (Kuma010) (peptides containing PQL): 7-19x (PQL); Activity Improvement over Background (Kuma010) (peptides containing PQQ): 15-35x (PQQ)
B2	In both cases, Kuma030 was the dominant enzyme tested	In both cases, Kuma030 was the dominant enzyme tested	17.4 s⁻¹	1.9 mM	1.74e-06 M/s	9030 M⁻¹ s⁻¹	27.3 s⁻¹	8.4 mM	2.73e-06 M/s	3270 M⁻¹ s⁻¹	Activity Improvement over Background (Kuma021) (peptides containing PQL): 1.2-2x (PQL); activity relative to Kuma010 (peptides containing PQL): 11-fold more active against peptides containing PQL; activity relative to Kuma040 (peptides containing PQL): Kuma030 is 2-fold more active on PQQ, and 2-fold less active on PQL, than Kuma040; cleavage products by mass spectroscopy (W03-E07): Kuma030 cleaved each peptide after the PQ dipeptide motif; Activity Improvement over Background (Kuma021) (peptides containing PQQ): 1.2-2x (PQQ); activity relative to Kuma010 (peptides containing PQQ): 44-fold more active against peptides containing PQQ; activity relative to Kuma040 (peptides containing PQQ): Kuma030 is 2-fold more active on PQQ, and 2-fold less active on PQL, than Kuma040; cleavage products by mass spectroscopy (W02-E07): Kuma030 cleaved each peptide after the PQ dipeptide motif; cleavage products by mass spectroscopy (B08-E2E7): Kuma030 cleaved each peptide after the PQ dipeptide motif; cleavage products by mass spectroscopy (R11-E4E7): Kuma030 cleaved each peptide after the PQ dipeptide motif; cleavage products by mass spectroscopy [2]: Kuma030 cleaved each peptide after the PQ dipeptide motif
B3	Kuma040 demonstrated activity almost as potent as Kuma030 especially against the 26mer peptide	Kuma040 demonstrated activity almost as potent as Kuma030 especially against the 26mer peptide	16.3 s⁻¹	0.86 mM	1.49e-06 M/s	19100 M⁻¹ s⁻¹	24.6 s⁻¹	15.3 mM	2.46e-06 M/s	1600 M⁻¹ s⁻¹	Activity Improvement over Background (Kuma010) (peptides containing PQL): 35-50x (PQL); Activity Improvement over Background (Kuma010) (peptides containing PQQ): 30-40x (PQQ);
B4	very poor activity on the 26mer peptide	Kuma050 demonstrated good activity on the 33mer peptide	14.2 s⁻¹	2.5 mM	1.42e-06 M/s	5610 M⁻¹ s⁻¹	27.8 s⁻¹	5 mM	2.78e-06 M/s	56 M⁻¹ s⁻¹	Activity Improvement over Background (Kuma021) (peptides containing PQL): 1.5-2x (PQL); Activity Improvement over Background (Kuma021) (peptides containing PQQ): 0.01-0.2x (PQQ)
B5	–	–	3.7 s⁻¹	4.6 mM	3.7e-07 M/s	819 M⁻¹ s⁻¹	1.2 s⁻¹	16.4 mM	1.22e-07 M/s	74 M⁻¹ s⁻¹	–
B6	–	–	–	–	–	–	–	–	–	–	Activity Improvement over Background (Kuma020) (peptides containing PQL): 1-2x (PQL); Activity Improvement over Background (Kuma020) (peptides containing PQQ): 1.2-2.5x (PQQ)
B7	–	–	–	–	–	–	–	–	–	–	Activity Improvement over Background (Kuma031) (peptides containing PQL): No change (PQL);; concentration of peptide breakdown product PFPQPQ over time (DQ2.5-glia-α1a): Kuma032 and Kuma042 demonstrate comparable activity as Kuma030 and Kuma040
B8	–	–	–	–	–	–	–	–	–	–	Activity Improvement over Background (Kuma041) (peptides containing PQL): 1.2-1.5x (PQL); concentration of peptide breakdown product PFPQPQ over time (DQ2.5-glia-α1a): Kuma042 even shows a slight increase in activity against this substrate compared to Kuma040
B9	–	–	–	–	–	–	–	–	–	–	Activity Improvement over Background (Kuma040) (peptides containing PQL): 1.0-1.2x (PQL)
B10	–	–	–	–	–	–	–	–	–	–	Activity Improvement over Background (Kuma030) (peptides containing PQL): No change (PQL);
